Reference: publication PMC6232179

Target: His-tagged ER luminal domain of IRE1α (IRE1-NLD-His6-KDEL)
Test: SPR; IRE1-NLD amine-coupled on a CM5 chip (~1500 RU); COX-2 flowed at 0 to 10000 nM in 10 mM Hepes pH 7.4, 150 mM NaCl, 0.005% P20, 30 µl/min; BIACore T200; triplicate

Kd: 880 nM
B1: COX-2 (prostaglandin endoperoxide synthase 2, PTGS2), purified His-tagged protein (enzyme)
chain: ANPCCSHPCQNRGVCMSVGFDQYKCDCTRTGFYGENCSTPEFLTRIKLFLKPTPNTVHYILTHFKGFWNVVNNIPFLRNAIMSYVLTSRSHLIDSPPTYNADYGYKSWEAFSNLSYYTRALPPVPDDCPTPLGVKGKKQLPDSNEIVEKLLLRRKFIPDPQGSNMMFAFFAQHFTHQFFKTDHKRGPAFTNGLGHGVDLNHIYGETLARQRKLRLFKDGKMKYQIIDGEMYPPTVKDTQAEMIYPPQVPEHLRFAVGQEVFGLVPGLMMYATIWLREHNRVCDVLKQEHPEWGDEQLFQTSRLILIGETIKIVIEDYVQHLSGYHFKLKFDPELLFNKQFQYQNRIAAEFNTLYHWHPLLPDTFQIHDQKYNYQQFIYNNSILLEHGITQFVESFTRQIAGRVAGGRNVPPAVQKVSQASIDQSRQMKYQSFNEYRKRFMLKPYESFEELTGEKEMSAELEALYGDIDAVELYPALLVEKPRPDAIFGETMVEVGAPFSLKGLMGNVICSPAYWKPSTFGGEVGFQIINTASIQSLICNNVKGCPFTSFSVPDPELIKTVTINASSSRSGLDDINPTVLLKERSTEL
modifications: red fluorescent tag, covalently labelled (only in the MST of Figure 4B)
